Source: the MegaScale stability set (Tsuboyama et al. 2023)

B1: EEHEE_rd4_0003 (parent)
chain: KKVTINGVEIKFNNPEEAVKFALELAKRLNLRIEFHGDQIKIE
B2: EEHEE_rd4_0363 (parent)
chain: VTVDIKGMEYHFDNPEEAKKFAERMAKELGGELKVENGTLKVE

Variants of: B1
Test: folding stability dG (cDNA display proteolysis); higher = more stable
Conditions: PBS, room temperature

Folding stability dG [kcal/mol], by site and new letter:
K41: R 2.8, Y 2.94, M 2.71, N 2.52, S 2.46, T 2.69, P 1.3, D 1.91, E 2.1, I 3.21, L 2.86, W 2.85, G 1.73, A 2.36, H 2.49, F 3, V 3, Q 2.27, C 3.17
R32: Q 2.1, K 2.54, L 2.19, N 2.03, T 2.31, W 2.2, C 2.81, H 2.24, F 2.12, M 2.07, V 2.33, G 1.6, P 1.71, S 2.17, I 2.36, E 1.64, D 1.56, Y 2.15
I33: Y 1.74, F 1.98, H 0.908, V 2.67, E 0.529, S 0.908, G 0.975, A 1.69, Q 1.08, R 0.847, T 1.31, N 0.797, K 0.882, M 1.92, D 0.681, L 2.35, P 1.29, W 2.08
F35: R 1.8, M 2.24, E 1.63, K 1.78, Y 2.41, W 2.7, I 2.58, Q 1.79, L 2.2, N 1.46, P 1.31, S 1.64, T 1.82, C 3.05, D 1.5, V 2.37, A 1.71, G 1.41, H 1.88

Variants of: B2
Test: as above
Conditions: PBS, room temperature

Folding stability dG [kcal/mol], by site and new letter:
I5: W 1.49, E 0.155, P -0.167, H 0.78, G 0.128, M 0.754, T 0.201, L 1.23, K 0.088, A 0.423, D 0.025, S 0.289, Q 0.05, C 1.99, R 0.036, Y 1.52, F 1.44, V 1.88
V1: C 2.67, K 1.2, I 2.06, A 1.48, P 0.612, W 2.81, F 2.41, N 1.31, Q 1.33, R 1.29, L 2.03, S 1.45, G 0.889, H 1.63, M 2, D 0.479, T 2.01, Y 2.55, E 0.523
T2: Y 1.52, D 0.711, I 2.37, M 1.71, F 1.65, P 0.448, E 0.41, R 1.7, Q 1.03, W 2.04, K 1.95, H 1.26, N 1.1, G 0.389, L 1.81, V 2.21, A 1.1, S 1.31
D4: G 1.39, S 2.98, F 3.35, T 2.85, H 2.91, E 2.56, V 3.47, C 3.39, Y 3.35, I 3.73, P 0.415, W 3.59, M 3.14, R 2.75, N 2.67, A 2.45, L 3.5, K 2.77, Q 2.75
V3: A 0.392, L 1.04, Y 0.332, Q 0.039, G 0.059, D -0.088, M 0.639, E -0.171, C 1.34, K -0.032, R -0.231, N -0.005, I 1.18, W 0.119, P 0.059, S 0.004, F 0.603, H -0.104, T 0.19
